In the assay the target is C18-V peptide presented by HLA-A*02:01 on peptide-pulsed T2 cells (Homo sapiens HLA-A*02:01 and B2M (T2 …)). Briefly: flow cytometry on cells.

B1: MUR35 Fab (anti-C18-MHC TCR-mimic antibody clone MUR35) (Fab, V domains shown)
VH: EVQLQQSGPELVKPGASVKISCKASGYTFTDHFMNWVRQSHGKSLEWIGDINPNNGGTSYNQKFKGKATLTVDKSSSTAFMEVRSLTSDDSAVYYCARRGYYGSFDYWGQGTTLTVSS
VL: EIVMTQSPATLSLSPGERATLSCRASQGVSSSYFSWYQQTPGQAPRLLISGASTRATGIPARFSGSGSGTDFTLTISSLQPEDFAVYYCQQDYNLPYTFGQGTKLEIK
B1: the binding result was “binds”.

B2: MUR14 Fab (anti-C18-MHC antibody clone MUR14) (Fab, V domains shown)
VH: EVQLQQSGPELVKPGASVKISCKASGYTFTDYFMNWVKQSHGKSLEWIGDINPNNGGTSYNQKFKGKATLTVDKSSSTAYMELRSLTSEDSAVYYCARGLYDGYYVGFAYWGQGTLVTVSA
VL: EIVMTQSPATLSLSPGERATLSCRASQSVSSSYLSWYQQKPGQAPRLLIYGASTRATGLPARFSGSGSGTDFTLTISSLQPEDFAVYYCHQDYNLPYTFGQGTKLEIK
For B2, the binding result is reported as “binds”.

Values taken from PMC12461897 (mAbs, 2025).
